This is an account of results in patent publication US20240092898A1 (BIVICTRIX, published 2024).

In assay [1] the target is T1, CD7 (human, UniProt P09564 26-180, limits assumed).
T1 construct: also called human CD7
T1 sequence (looked up): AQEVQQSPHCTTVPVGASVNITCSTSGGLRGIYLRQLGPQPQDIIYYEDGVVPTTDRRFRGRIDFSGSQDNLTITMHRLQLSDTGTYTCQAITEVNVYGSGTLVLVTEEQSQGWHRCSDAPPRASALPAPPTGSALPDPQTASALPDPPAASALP
Kind of assay: SPR; ratio of KD to WT. (Surface plasmon resonance follows binding to a sensor surface in real time, without labels.)

The target in assay [2] is T1, CD7. Briefly: SPR.

B1: 7-AA-1 (antibody, V domains shown)
VH: QVQLQESGAELVKPGASVKLSCKASGYTFTSYWMHWVKQRPGQGLEWIGKINPSNGRTNYNEKFKSKATLTVDKSSSTAYMQLSSLTSEDSAVYYCARGGVYYDLYYAALDYWGQGTTVTVSS
VL: DIELTQSPATLSVTPGDSVSLSCRASQSISNNLHWYQQKSHESPRLLIKSASQSISGIPSRFSGSGSGTDFTLSINSVETEDFGMYFCQQSNSWPYTFGGGTKLEIKR
On to B1, for which, in assay [1], the “Fold reduction in binding affinity compared to WT (Kd)” value came out at 17 fold. Besides, the Kd in assay [2] came to 44.5 nM.

What is called Kd is a measure of binding affinity in units of concentration.
